T1: Human CD19-his protein (human, UniProt P15391 20-291)
T1 construct: bought protein; also called human CD19 protein; recombinant human CD19-His; not shown: His tag
T1 sequence (looked up): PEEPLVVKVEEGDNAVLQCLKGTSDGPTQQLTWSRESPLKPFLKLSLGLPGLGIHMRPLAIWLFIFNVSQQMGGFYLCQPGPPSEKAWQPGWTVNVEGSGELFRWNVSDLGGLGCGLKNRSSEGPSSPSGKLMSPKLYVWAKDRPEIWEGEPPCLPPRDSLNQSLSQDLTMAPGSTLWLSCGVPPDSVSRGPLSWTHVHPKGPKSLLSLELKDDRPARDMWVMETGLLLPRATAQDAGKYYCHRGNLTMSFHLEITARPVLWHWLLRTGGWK

T2: murine CD19 protein (murine, UniProt P25918 17-287, limits assumed)
T2 construct: bought protein; also called commercial murine CD19
T2 sequence (looked up): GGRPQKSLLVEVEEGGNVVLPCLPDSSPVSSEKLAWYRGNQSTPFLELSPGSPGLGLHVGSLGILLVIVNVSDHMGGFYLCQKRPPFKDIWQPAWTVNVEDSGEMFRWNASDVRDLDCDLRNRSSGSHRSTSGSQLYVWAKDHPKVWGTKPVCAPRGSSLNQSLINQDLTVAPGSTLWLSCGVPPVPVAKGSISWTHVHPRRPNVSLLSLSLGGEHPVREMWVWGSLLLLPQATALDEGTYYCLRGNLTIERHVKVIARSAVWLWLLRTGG

T3: human CD19 exon1-3-his protein (human, UniProt P15391 20-186, limits assumed)
T3 construct: made in HEK293E cells; also called membrane-distal end; not shown: His tag
T3 sequence (looked up): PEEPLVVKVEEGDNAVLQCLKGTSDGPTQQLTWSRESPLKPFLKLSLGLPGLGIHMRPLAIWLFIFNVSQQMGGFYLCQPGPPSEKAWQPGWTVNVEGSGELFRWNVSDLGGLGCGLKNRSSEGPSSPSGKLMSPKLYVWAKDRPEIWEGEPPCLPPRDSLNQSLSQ


Columns and labels:
[1] = target: T1, Human CD19-his protein; assay: ELISA, antibody at 0.10 nM
[2] = target: T1, Human CD19-his protein; assay: ELISA, antibody at 0.01 nM
[3] = target: T1, Human CD19-his protein; assay: ELISA, antibody at 100 nM
[4] = target: T1, Human CD19-his protein; assay: ELISA on coated human CD19-His
[5] = target: T2, murine CD19 protein; assay: ELISA, coated murine CD19
Outline: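 Plates coated overnight at 4° C with recombinant murine or monkey CD19 and blocked with 2% BSA. Chimeric antibodies, serially diluted from 100 nM, bound for 2 h at 37° C. TMB development for 10 min with OD450 read-out.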

[6] = target: T3, human CD19 exon1-3-his protein; assay: ELISA, coated at 2 ug/mL
[7] = target: T1, Human CD19-his protein; assay: ELISA, antibody at 1.00 nM
[8] = target: T1, Human CD19-his protein; assay: ELISA, antibody at 0.001 nM
[9] = target: T1, Human CD19-his protein; assay: ELISA, antibody at 0.0001 nM
[10] = target: T1, Human CD19-his protein; assay: ELISA, antibody at 10 nM

Binder	OD450 [1]	OD450 [2]	OD450 [3]	EC50 (read off the curve) [4]	binding result [5]	binding result [6]	OD450 [7]	OD450 [8]	OD450 [9]	OD450 [10]
F3.113.16 (antibody, human IgG1, V domains shown, human-murine chimeric antibody, human IgG1) VH: QVQLQQPGAELVKPGASVKLSCKASGYTFTNYWMQWVKQRPGQGLEWIGEIDPSDSYINYNQKFKGKATLTADTSSSTAYMQLSSLTYEDSAVYYCARPVTVPWYFDVWGTGTTVTVSS VL: EIVLTQSPTTMAASPGEKITITCSATSSISSNYLHWYQQKPGFSPKLLIYRTSNLASGVPARFSGSGSGTSYSLTIGTMEAEDVATYYCQQGSAIPRIFTFGSGTKLEIK	0.11	0.06	0.38	~0.5 nM	no binding	no binding	0.26	0.05	0.05	0.34
F3.121.4 (antibody, human IgG1, V domains shown, human-murine chimeric antibody, human IgG1; also called chimeric antibody F3.121.4) VH: QVQLQQPGAELVVPGTSVKLSCKASGYTFTNYWMHWVKQRPGQGLEWIGEIDPSDNYANYNQEFQGKATLTVDKSSSTAYMQLSSLTSDDSAVYYCARHDGYFGALDYWGQGTSVTVSS VL: EIVLTQSPTTMAASPGEKITITCSASSSISSNYLHWYQQKPGFSPKFLIYRTSNLASGVPARFSGSGSGTSYSLTIGTMEAEDVATYYCQQASSIPRMFTFGSGTKLEIK	0.5	0.11	0.82	~0.1 nM	no binding	no binding	0.88	0.06	0.05	1.04
F5.8.6 (antibody, human IgG1, V domains shown, human-murine chimeric antibody, human IgG1) VH: QVQLHQPGAELVMPGASVTLSCKASGYTFTSYWMHWVKQRPGQGLEWIGEIDPSDSYTTYDQKFKGKATLTVDKFSSTAYMQFSSLTSEDSAVYYCARLTGNHLDYWGQGTTLTVSS VL: DIVMTQSHKFMSSSVGDRVSITCKASQDVSPAVAWYQQKPGQSPKLLIYSTSYRNTGVPDRFTGSGSGTDFTFTISSVQAEDLAVYYCQQHYSIPLTFGAGTKLELK	0.22	0.08	0.96	~0.4 nM	no binding	no binding	0.69	0.06	0.05	0.93
F4.272.13 (antibody, human IgG1, V domains shown, human-murine chimeric antibody, human IgG1) VH: QVQLKESGPGLVAPSQSLSITCTVSGFSLTDYGVSWIRQPPGKGLEWLGVIWGSETTFYNSALKSRLSISKDNSKSQLFLQMNSLQADDTAIYYCAKHHYYGGSFSMDYWGQGTSVTVSS VL: DIQMTQTTSSLSASLGDRVTISCRASQDINNYLNWYQQKPDGTVKFLIYYTSRLHSGVPSRFSGSGSGTDYSLTISDLEQEDIATYFCQQGNTLPYTFGGGTKLEIK	1.56	0.33	2.25	~0.04 nM	no binding	no binding	2.14	0.09	0.06	2.14
F4.18.13 (antibody, human IgG1, V domains shown, human-murine chimeric antibody, human IgG1) VH: QVQLQQSGPELVKPGASVKISCKASGYAFSSFWMNWVKQRPGEGLEWIGRIYPGDGDTNYNGKFKGKATLTADDSSSTAYMQLSSLTSVDSAVYFCAREVIAAVVTTDFDYWGQGTTLTVSS VL: DIQMTQTTSSLSASLGDRVTISCRTSQDISNYLNWYLQKPDGTVKLLIYYTSGLHSGVPSRFSGSGSGTDYSLTISNLEPEDIATYFCQQGKTLPYTFGGGTKLEIK	1.32	0.25	1.69	~0.05 nM	no binding	no binding	2.01	0.08	0.05	1.96
F2.15.26 (antibody, human IgG1, V domains shown, human-murine chimeric antibody, human IgG1) VH: QVQLKESGPGLVAPSQSLSITCTVSGFSLTDYGVSWIRQSPGKGLEWLGVIWGSGDTYYNSVLESRLSINKDNSKNQVFLKMNSLQTDDAAMYFCAKHSYYGGSFAMDYWGQGTSVTVSS VL: DIQMTQTTSSLSASLGDRVTISCRASQDISNYLNWYQQKPDGTVKLLIYYTSRLHSGVPSRFSGSGSGTDYSLTISNLEQEDIATYFCQQGKTLPWTFGGGTKLEIK	0.8	0.18	1.54	~0.09 nM	no binding	no binding	1.3	0.07	0.05	1.4
F5.7.1 (antibody, human IgG1, V domains shown, human-murine chimeric antibody, human IgG1) VH: QVTLKESGPGILQPSQTLSLTCSFSGFSLTTFGMGVGWIRQPSGKGLEWLTHIWWDDDKYYNPALKSRLTISKDTSKNQVFLRIANVDTADTATYYCARVITTGVPYFDYWGQGTTLTVSS VL: ENVLTQSPAIMSASPGEKVTMTCRASSSVSSSYLYWYQQKSGASPKLWISSTSNLASGVPARFSGSGSGTSYSLTINSVEAEDAATYYCQQYSGYPWTFGGGTKLEIK	1.09	0.25	1.91	~0.07 nM	no binding	no binding	1.62	0.08	0.06	1.78
F3.64.4 (antibody, human IgG1, V domains shown, human-murine chimeric antibody, human IgG1) VH: EVQLQQSGPELVKPGASVKISCKASGYTFTDYHINWVKQSHGKSPEWIGDINPNNGGTTYNQKFKDKATLTVDKSSSTAFMELRSLTSEDSAVYYCARFITTVVAWYFDVWGTGTTVTVSS VL: DIQMTQSPASLSVSVGETVTITCRASENIYSNLAWYQQKQGKSPQLLVYAATNLADGVPSRFSGSGSGTQYSLKINSLQSEDFGNYYCQRFWDTPRTFGGGTKLEIK	0.55	0.13	0.83	~0.1 nM	no binding	no binding	1.06	0.06	0.05	1
F5.10.6 (antibody, human IgG1, V domains shown, human-murine chimeric antibody, human IgG1) VH: DVQLQESGPGLVKPSQSLSLTCSVTDYSITSGYYWTWIRQFPGNKLEWMGYISYDGSTNYNPSLKNRFSITRDTSKNQFFLKLNSVIIEDTATYYCARDRMSTTWYFDVWGTGTTVTVSS VL: DIVLTQSPASLAVSLGQRATISCRASESVDNYGISFMHWYQQKPGQPPKLLIYRASKTESGIPARFSGSGSRTDFTLTINPVETDDVATYYCQQSNKYPRTFGGGTKVEIK	0.68	0.15	1.52	~0.2 nM	no binding	no binding	1.48	0.07	0.05	1.76
F1-mab003 (antibody, human IgG1, V domains shown, human-murine chimeric antibody, human IgG1) VH: EVQLQQSGPELVKPGASVKMSCKASGYTFTDYVMHWVRQTPGQGLEWIGYFNPYNDGTNYNEKFKVKATLTSDKSSTTAYMELSSLTSEDSAVYYCARGVYYYGRDFDYWGQGTTLTVSS VL: DVVLTQTPLSLPVSLGDQASISCRSSQSLENSNGNSYLNWYLQKPGQSPQLLIYRVSNRFSGVLDRFSGSGSGTDFTLKISRVEAEDLGVYFCLQITHVPWTFGGGTKLEIK	1.09	0.28	1.98	~0.07 nM	no binding	no binding	1.58	0.08	0.06	1.72
